Five proteins from US20100172938A1 (NEDERLANDSE ORGANISATIE VOOR TOEGEPAST …, published 2010) can be followed below.

Data set [1] concerns the molecule itself. Put plainly: SDS-PAGE and western blot, self-association (dimer). From the text: To get further insight in the structure of SAN, vectors were constructed encoding C-terminally (SAN2, 4 and 6 carrying the first 159, 149 and 113 amino acids) or N-terminally truncated peptides (SAN7, 3 and 5 comprising the last 177, 151 and 141 amino acids). The truncated His-tagged genes were expressed in E. coli and the peptides SAN2, SAN4, SAN6 and SAN7 were purified by affinity chromatography. The peptides SAN3 and SAN5 were produced at very low levels and could not be purified probably due to increased sensitivity to E. coli proteases.
Three DNA fragments encoding C-terminally truncated SAN peptides were amplified by PCR with pBK1 (Boot et al., 1993) as template. Primer CEA1 (5′-[…]-3′, forward: SEQ ID NO. 26) was used in combination with primer SANA1 (5′-[…]-[…]-3′, reverse: SEQ ID NO. 27) to amplify SAN2, SANA2 (5′-[…]-3′, reverse: SEQ ID NO. 28) for SAN4 and SANA3 (5′-[…]-3′, reverse: SEQ ID NO. 29) for SAN6. Fragments encoding three N-terminally truncated peptides were amplified using primer SANB1 (5′-[…]-[…]-3′: SEQ ID NO. 30) for SAN3, SANB2 (5′-[…]-TT-[…]-3′: SEQ ID NO. 31) for SAN5 and SANB3 (5′-GGGGGG-[…]-3′: SEQ ID NO. 32) for SAN7, all three in combination with primer SAN1 (5′[…]-[…]-3′, reverse: SEQ ID NO. 33) and the same template. The fragments were cloned in pGEM-T and sequenced. The fragments encoding SAN2, SAN3, SAN4, SAN5, SAN6 and SAN7 were excised as BamHI-HindIII fragments and introduced in vector pQE30ΔXN (Smit et al., 2001) in frame with an N-terminal six histidine tag. Expression of gene fragments and purification of the gene products was performed as described previously (Smit et al., 2001).

Data set [2] concerns the molecule itself. Description: SDS-PAGE and western blot, self-association. (A western blot detects proteins with antibodies after separation by electrophoresis.)

B1: SAN7, N-terminally truncated SAN peptide, His-tagged (other)
chain: RGSHHHHHHGSGTSANSNVKFTGTNSDNQTETNVSTLKVKLDQNGVASLTNVSIANVYAINTTDNSNVNFYDVTSGATVTNGAVSVNADNQGQVNVANVVAAINSKYFAAQYADKKLNTRTANTEDAIKAALKDQKIDVNSVGYFKAPHTFTVNVKATSNTNGKSATLPVVVTVPNVAEPTVASVSKRI
Take B1: the binding result in data set [1] is listed as “binds”.

B2: SAN4, C-terminally truncated SAN peptide carrying the first 149 amino acids, His-tagged (other)
chain: RGSHHHHHHGSGTATTINASSSAINTNTNAKYDVDVTPSVSAVAANTANNTPAIAGNLTGTISASYNGKTYTANLKADTENATITAAGSTTAVKPAELAAGVAYTVTVNDVSFNFGSENAGKTVTLGSANSNVKFTGTNSDNQTETNVSTLKVKLDQNGVAS
For B2, the binding result in data set [1] is “binds”.

B3: SAN6, C-terminally truncated SAN peptide, His-tagged (other)
chain: RGSHHHHHHGSGTATTINASSSAINTNTNAKYDVDVTPSVSAVAANTANNTPAIAGNLTGTISASYNGKTYTANLKADTENATITAAGSTTAVKPAELAAGVAYTVTVNDVSFNFGSENAGKTVTLG
In the case of B3, in data set [1], the binding result was “binds”.

B4: SAN, crystallisation domain of SA-protein (amino acids 1-290), His-tagged (other)
chain: ATTINASSSAINTNTNAKYDVDVTPSVSAVAANTANNTPAIAGNLTGTISASYNGKTYTANLKADTENATITAAGSTTAVKPAELAAGVAYTVTVNDVSFNFGSENAGKTVTLGSANSNVKFTGTNSDNQTETNVSTLKVKLDQNGVASLTNVSIANVYAINTTDNSNVNFYDVTSGATVTNGAVSVNADNQGQVNVANVVAAINSKYFAAQYADKKLNTRTANTEDAIKAALKDQKIDVNSVGYFKAPHTFTVNVKATSNTNGKSATLPVVVTVPNVAEPTVASVSKRI
notes: Construct from Smit et al. 2001; not shown: His-tag (detected with anti-his antibody)
As to B4, the binding result in data set [2] was “binds”.

B5: SAN2, C-terminally truncated SAN peptide carrying the first 159 amino acids, His-tagged (other)
chain: RGSHHHHHHGSGTATTINASSSAINTNTNAKYDVDVTPSVSAVAANTANNTPAIAGNLTGTISASYNGKTYTANLKADTENATITAAGSTTAVKPAELAAGVAYTVTVNDVSFNFGSENAGKTVTLGSANSNVKFTGTNSDNQTETNVSTLKVKLDQNGVASLTNVSIANVY
As for B5, in data set [1], the binding result is reported as “binds”.
